The record followed here is US5795721.

pKd: −log10 of the molar value.

This data set addresses T1, FP505 (ICP4 residues 210-490 DNA-binding/dimerization domain fusion) (Herpes simplex virus 1) (UniProt P08392).
T1 sequence: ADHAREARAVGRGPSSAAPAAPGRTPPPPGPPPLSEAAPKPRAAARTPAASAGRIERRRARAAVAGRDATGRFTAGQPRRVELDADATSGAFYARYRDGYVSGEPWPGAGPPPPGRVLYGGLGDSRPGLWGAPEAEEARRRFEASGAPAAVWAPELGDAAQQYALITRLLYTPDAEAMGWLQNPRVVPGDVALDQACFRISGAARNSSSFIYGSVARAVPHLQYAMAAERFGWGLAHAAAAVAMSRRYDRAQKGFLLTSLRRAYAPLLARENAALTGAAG
The data set is described as follows: filter.

Under “without tRNA, >1 uM with tRNA excess”, ICP0 promoter duplex 200mer gave a pKd of 9.30.

For the setting “random pool”, “GGGAGACAAGAAUAAACGCUCAANNNNNNNNNNNNNNNNNNNNNNNNNNNNNNNNNNNNNNNNUUCGACAGGAGGCUCACAACAGGC [random RNA pool]” showed a pKd of less than 7.00.

On to “GGGAGGACAGTGCGGNNNNNNNNNNNNNNNNNNNNNNNNNNNNNNNNNNNNNNNNCAGTGCGTCAGTCAAC [random ssDNA pool]”, for which the pKd (with tRNA, >11 nM without tRNA) was less than 6.80.
